One experiment deals with T1, CD28.OX40.z.
T1 construct: also called M47 IL13Ra2 - SH - TM - CD28 - OX40 - ζ-chain CAR on T cells
The experiment can be described thus: flow cytometry of transduced T cells stained with IL13Rα2Fc and secondary antibody, axis labelled CAR. A general note: A flow cytometer gives signals particle by particle.

The target of another experiment is T2, *41BB.z.
T2 construct: also called M47 IL13Ra2 - SH - TM* (CD8a) - 41BB - ζ-chain CAR on T cells
The description is as above.

Experiment [1] has as its target T3, recombinant mouse IL13Rα2hFc chimera (mouse, UniProt O88786 22-334, limits assumed).
T3 construct: Bought from R&D Systems; also called mouse rIL13Rα2; mouse recombinant IL13Rα2; not shown: human Fc (hFc) of the purchased chimera
T3 sequence (looked up): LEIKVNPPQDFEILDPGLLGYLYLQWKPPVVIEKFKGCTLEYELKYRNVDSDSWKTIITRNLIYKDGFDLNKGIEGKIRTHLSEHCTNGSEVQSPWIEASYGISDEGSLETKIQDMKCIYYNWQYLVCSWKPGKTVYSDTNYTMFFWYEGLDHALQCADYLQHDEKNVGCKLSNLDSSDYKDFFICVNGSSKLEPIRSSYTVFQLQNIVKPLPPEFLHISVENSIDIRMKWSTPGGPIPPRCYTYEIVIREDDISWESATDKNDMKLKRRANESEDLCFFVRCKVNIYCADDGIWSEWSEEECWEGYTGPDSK
In words: plate-bound ELISA on mouse rIL13Rα2hFc.

In experiment [2] the target is T4, recombinant human IL13Rα1hFc chimera (human, UniProt P78552 27-343, limits assumed).
T4 construct: Bought from R&D Systems; also called rhIL13Rα1; hrIL13Rα1; not shown: human Fc (hFc) of the purchased chimera
T4 sequence (looked up): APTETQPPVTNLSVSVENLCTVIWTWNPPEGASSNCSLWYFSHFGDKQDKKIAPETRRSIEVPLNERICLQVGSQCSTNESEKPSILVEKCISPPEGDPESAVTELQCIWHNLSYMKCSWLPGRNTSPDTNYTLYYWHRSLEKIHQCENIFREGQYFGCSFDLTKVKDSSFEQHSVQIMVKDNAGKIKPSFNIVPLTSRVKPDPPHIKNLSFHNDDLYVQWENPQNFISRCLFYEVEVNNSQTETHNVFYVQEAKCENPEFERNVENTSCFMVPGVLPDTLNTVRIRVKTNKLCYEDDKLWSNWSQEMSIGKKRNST
In words: plate-bound ELISA on IL13Rα1hFc. On the technique in general: In an ELISA, binding on a coated surface is turned into a signal by an enzyme label.

B1: recombinant human IL13Rα2hFc chimera (Fc fusion, UniProt Q14627 27-343, looked up)
chain: DTEIKVNPPQDFEIVDPGYLGYLYLQWQPPLSLDHFKECTVEYELKYRNIGSETWKTIITKNLHYKDGFDLNKGIEAKIHTLLPWQCTNGSEVQSSWAETTYWISPQGIPETKVQDMDCVYYNWQYLLCSWKPGIGVLLDTNYNLFYWYEGLDHALQCVDYIKADGQNIGCRFPYLEASDYKDFYICVNGSSENKPIRSSYFTFQLQNIVKPLPPVYLTFTRESSCEIKLKWSIPLGPIPARCFDYEIEIREDDTTLVTATVENETYTLKTTNETRQLCFVVRSKVNIYCSDDGIWSEWSDKQCWEGEDLSKKTLLR
notes: Bought from R&D Systems; also called rhIL13Rα2hFc; rhIL13Rα2; not shown: human Fc (hFc) of the purchased chimera
Take B1: the binding result with CD28.OX40.z and with *41BB.z was “binds” each time.

B2: IL13Rα2 (clone 47) mAb (antibody, V domains shown)
VH: QVQLQQPGAELVRPGASVKLSCKASGYTFSNYLMNWVKQRPEQDLDWIGRIDPYDGDIDYNQNFKDKAILTVDKSSSTAYMQLSSLTSEDSAVYYCARGYGTAYGVDYWGQGTSVTVSS
VL: not shown
notes: Mouse hybridoma antibody; mIgG1 was used as isotype control; also called mAb47; m47
Regarding B2, the figures for the binding result in experiment [1] and in experiment [2] were “no binding” and “no binding (tested: 4 µg/ml)”, respectively.

For the origin of these results see patent US20190300616A1 (UNIVERSITY OF CHICAGO, published 2019).
